Numbering of substitutions follows the chain as printed.
B1: 1.53.3-uAb-IgG4k (antibody, V domains shown)
VH: QVQLQQWGAGLLKPSETLSLTCGVYGGSFSGYYWSWIRQPPGMGLEWIGEINHRGNTNYNPSLKSRVTISEDTSKNQFSLRLSSVTAADTAVYFCTRGEDYSDYDYYGDFWGQGTLVTVSS
VL: EIVLTQSPATLSLSQGERATLSCRASQSISSYLAWYQQKPGQAPRLLIYAASNRATGIPARFSGSGSGTDFTLTISSLEPEDFAIYYCQQRSNWPLTFGGGTKVEIK
notes: Fully human antibody from OMT rats; IgG4 kappa by its name
B2: 3.40.19-uAb-IgG4L (antibody, V domains shown)
VH: QLQLQESGPGLVKPSETLSLTCTVSGDSISSTSYYWGWIRQPPGKGLEWIGSFYYSGSTYYNPSLKSRVTISVDTSKNQFSLKLNSVTAADTAVYYCARMQLWSYDVDVWGQGTTVTVSS
VL: QSALTQPASVSGSPGQSITISCTGTSSDVGGYDYVAWYQQHPGKVPKLMIYDVSERPSGVSNRFSGSKSGNTASLTISGLQAEDEADYYCSSYTSTTTLVVFGGGTKLSVL
notes: Fully human antibody from OMT rats; IgG4 lambda by its name; also called 3.40.19-uAb-hIgG4L

What was measured:
[1] = molecular target: T1, mFc-tagged LAG-3 protein (human, UniProt P18627 30-450); assay: FACS competition: blocks mFc-tagged LAG-3 binding to MHC-II on Raji cells
T1 construct: also called human LAG-3 ECD with mouse Fc tag
T1 sequence: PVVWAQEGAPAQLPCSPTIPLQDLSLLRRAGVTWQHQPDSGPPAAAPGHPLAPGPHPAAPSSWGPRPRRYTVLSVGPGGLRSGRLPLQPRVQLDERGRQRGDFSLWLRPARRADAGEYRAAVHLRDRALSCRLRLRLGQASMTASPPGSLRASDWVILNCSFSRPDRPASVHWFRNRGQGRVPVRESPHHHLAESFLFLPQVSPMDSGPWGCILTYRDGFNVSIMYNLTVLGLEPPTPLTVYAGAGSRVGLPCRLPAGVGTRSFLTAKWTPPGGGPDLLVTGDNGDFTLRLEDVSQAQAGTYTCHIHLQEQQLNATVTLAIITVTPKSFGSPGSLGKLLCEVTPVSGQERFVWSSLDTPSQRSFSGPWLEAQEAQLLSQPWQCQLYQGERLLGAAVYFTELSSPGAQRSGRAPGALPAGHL
Experimental: Antibodies were serially diluted in 1% BSA-PBS and incubated with mFc-tagged LAG-3 protein at 4° C. for 30 min. The mixture was transferred into the 96-well plates seeded with Raji cells. Goat anti-mouse IgG Fc-PE antibody was used to detect the binding of LAG-3 protein to Raji cells. The MFI was evaluated by flow cytometry and analyzed by the software FlowJo (version 7.6.1).

[2] = molecular target: T1, mFc-tagged LAG-3 protein; assay: ELISA competition: blocks mFc-tagged LAG-3 binding to coated Galectin-3
Experimental: 96-well plates were coated with human LSECtin or Galectin-3 at 0.5 μg/mL overnight at 4° C., respectively. Antibodies were serially diluted in 1% BSA-PBS and mixed with mFc-tagged LAG-3 protein. After blocking and washing, the mixture was transferred to the plates and incubated at room temperature for 1 h. The plates were then washed and subsequently incubated with corresponding secondary antibody for 60 min. After washing, TMB substrate was added and the color reaction was stopped by 2M HCl. The absorbance at 450 nm was read using a microplate reader.

[3] = molecular target: T2, human CD4 (human, UniProt P01730 26-390, limits assumed); assay: ELISA on plate-coated human CD4, OD450
T2 construct: also called human CD4 protein
Experimental: Cross-reactivity to human CD4 was measured by ELISA. Plates were coated with human CD4 at 1μg/mL overnight at 4° C. After blocking and washing, 1 μg/mL of LAG-3 antibodies were added to the plates and incubated at room temperature for 1 h. The plates were then washed and subsequently incubated with corresponding secondary antibody for 45 min. After washing, TMB substrate was added and the color reaction was stopped by 2 M HCl. The absorbance at 450 nm was read using a microplate reader.

[4] = molecular target: T3, human LAG-3-ECD.D12.mFc mutant W63A (human, UniProt P18627 37-252); assay: ELISA, antibody coated, LAG-3 D12.mFc mutant in supernatant, normalised to control mutants
T3 construct: Alanine scanning mutant; construct limits as for m26
T3 chain: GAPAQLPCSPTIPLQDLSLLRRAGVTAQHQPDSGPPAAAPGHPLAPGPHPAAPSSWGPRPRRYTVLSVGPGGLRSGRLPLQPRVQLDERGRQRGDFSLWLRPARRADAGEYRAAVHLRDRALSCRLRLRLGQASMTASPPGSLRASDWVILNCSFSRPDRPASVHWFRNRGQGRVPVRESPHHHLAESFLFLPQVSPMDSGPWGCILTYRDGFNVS
Experimental: (§1) For ELISA binding assay, the antibody 1.53.3-uAb-IgG4k or 3.40.19-uAb-hIgG4L (2 μg/mL) was coated in plates. After interacting with the supernatant that contains quantified LAG-3 mutants or human LAG-3-ECD.D12.mFc protein, HRP conjugated anti-mFc antibody (1:5000; Bethyl, USA) was added as a detection antibody. Absorbance was normalized according to the average absorbance of control mutants. After setting an additional cutoff to the binding fold change (<0.75), the final determined epitope residues were identified.

[5] = molecular target: T4, human LAG-3-ECD.D12.mFc mutant L42A (human, UniProt P18627 37-252); assay: as above
T4 construct: Alanine scanning mutant; construct limits as for m26
T4 chain: T3 chain with L6A, A27W
Experimental: as §1

[6] = molecular target: T5, human LAG-3-ECD.D12.mFc mutant L164A (human, UniProt P18627 37-252); assay: as above
T5 construct: Alanine scanning mutant; construct limits as for m26
T5 chain: T3 chain with A27W, L128A
Experimental: as §1

| EC50 [1] | EC50 [2] | binding result [3] | Fold Change [4] | Fold Change [5] | Fold Change [6] | Binder |
| --- | --- | --- | --- | --- | --- | --- |
| 0.8 nM | 0.74 nM | no binding (tested: 66.7 nM) | 0.585 | 0.624 | 0.586 | B1 |
| 0.67 nM | 0.56 nM | no binding (tested: 66.7 nM) | 0.171 | 0.306 | 0.278 | B2 |

From patent US20200407442A1 (WUXI BIOLOGICS IRELAND, published 2020)
